Four substances from patent publication US20090317401A1 can be followed below.

Holding throughout (assay): cell-based or functional assay
In test [1] the target is HLA-C expressed on K562class I+ cells (human) (UniProt P10321).
Test [2] has as its target human CD160 receptor (human) (UniProt O95971).
The target of test [3] is CD16 receptor on PB-NK cells (human) (UniProt P08637).
UniProt P08637, sequence (P08637 17-254): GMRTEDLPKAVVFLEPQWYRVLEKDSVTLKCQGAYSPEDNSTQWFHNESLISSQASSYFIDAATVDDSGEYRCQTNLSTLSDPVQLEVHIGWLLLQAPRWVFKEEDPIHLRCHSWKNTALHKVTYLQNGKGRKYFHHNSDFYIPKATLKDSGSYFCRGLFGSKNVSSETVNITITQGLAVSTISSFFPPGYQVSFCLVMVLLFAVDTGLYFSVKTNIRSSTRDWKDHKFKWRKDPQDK

UniProt P10321, sequence (P10321 25-366): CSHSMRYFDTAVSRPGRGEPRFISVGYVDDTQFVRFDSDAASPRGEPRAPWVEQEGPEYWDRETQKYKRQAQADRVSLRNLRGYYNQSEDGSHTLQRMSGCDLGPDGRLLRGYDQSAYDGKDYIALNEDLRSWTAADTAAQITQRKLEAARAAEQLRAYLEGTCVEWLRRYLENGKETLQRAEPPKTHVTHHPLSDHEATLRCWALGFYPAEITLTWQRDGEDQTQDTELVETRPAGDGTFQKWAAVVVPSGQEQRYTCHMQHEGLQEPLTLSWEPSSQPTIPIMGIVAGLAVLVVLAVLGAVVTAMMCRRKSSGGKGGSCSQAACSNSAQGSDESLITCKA
UniProt O95971, sequence (O95971 25-159): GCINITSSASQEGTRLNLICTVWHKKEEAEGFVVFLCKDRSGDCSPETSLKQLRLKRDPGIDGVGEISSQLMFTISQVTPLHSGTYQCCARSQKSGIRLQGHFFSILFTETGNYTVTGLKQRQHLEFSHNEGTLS

As to “W6/32 anti-HLA mAb (IgG2a; ATCC HB-95) (antibody)”, in test [1], the IFN-γ production by PB-NK co-cultured with K562Class-I+ in the presence of blocking anti-HLA-C mAb turned out to be 1150 pg/mL, the IL-6 production by PB-NK co-cultured with K562Class-I+ in the presence of blocking anti-HLA-C mAb turned out to be 370 pg/mL and the TNF-α production by PB-NK co-cultured with K562Class-I+ in the presence of blocking anti-HLA-C mAb stood at 64 pg/mL.

With “HLA-C expressed on K562class I+ cells (from UniProt P10321 25-366) (ligand)”, in test [2], the IFN-γ production by PB-NK co-cultured 16 h with K562Class-I+ (Cytometric Bead Array) was 29400 pg/mL, the IFN-γ production by PB-NK co-cultured with K562Class-I+ in the presence of IgG1 isotype control was 23100 pg/mL, the IFN-γ production by PB-NK co-cultured with K562Class-I+ in the presence of IgG2a isotype control worked out at 16100 pg/mL and the IL-6 production by PB-NK co-cultured 16 h with K562Class-I+ (Cytometric Bead Array) worked out at 620 pg/mL. In addition, in test [2], the IL-6 production by PB-NK co-cultured with K562Class-I+ in the presence of IgG1 isotype control came to 414 pg/mL, the IL-6 production by PB-NK co-cultured with K562Class-I+ in the presence of IgG2a isotype control came out at 478 pg/mL, the TNF-α production by PB-NK co-cultured 16 h with K562Class-I+ (Cytometric Bead Array) worked out at 334 pg/mL and the TNF-α production by PB-NK co-cultured with K562Class-I+ in the presence of IgG1 isotype control is 200 pg/mL. Besides, in test [2], the TNF-α production by PB-NK co-cultured with K562Class-I+ in the presence of IgG2a isotype control was found to be 215 pg/mL.

In test [2], “HLA-Cw5 on K562-HLA-Cw5 transfectants (ligand)” gave an IFN-γ production by PB-NK co-cultured 16 h with K562-Cw5 (Cytometric Bead Array) of 20100 pg/mL, an IL-6 production by PB-NK co-cultured 16 h with K562-Cw5 (Cytometric Bead Array) of 689 pg/mL and a TNF-α production by PB-NK co-cultured 16 h with K562-Cw5 (Cytometric Bead Array) of 389 pg/mL.

Regarding “3G8 anti-CD16 mAb (IgG1; Beckman-Coulter) (antibody)”, the IFN-γ production by PB-NK after mAb cross-linking of CD16, against CD160 engagement in test [3] amounted to 30 fold less.
